Data from PMC9843055, “Karyopherin α deficiency contributes to human preimplantation embryo arrest” (The Journal of Clinical Investigation, 2023).

Target: T1, human KPNA7 (karyopherin subunit α7), WT, purified, GST cleaved (human, UniProt A9QM74 1-516)
T1 construct: karyopherin subunit α7 (importin α8), human; also called hKPNA7; importin α8; source: E. coli BL21 (DE3) plysS, purified (glutathione Sepharose, GST tag cut with PreScission protease)
Test: pull-down; GST-SV40TNLS-GFP or GST-RSL1D1-GFP held on GST beads (4°C, 1 h, transport buffer with 0.1% Triton X-100), then cleaved WT or mutant KPNA7 at 4°C for 2 h; Western blotting
Details: both partners purified

T1 sequence (A9QM74 whole entry): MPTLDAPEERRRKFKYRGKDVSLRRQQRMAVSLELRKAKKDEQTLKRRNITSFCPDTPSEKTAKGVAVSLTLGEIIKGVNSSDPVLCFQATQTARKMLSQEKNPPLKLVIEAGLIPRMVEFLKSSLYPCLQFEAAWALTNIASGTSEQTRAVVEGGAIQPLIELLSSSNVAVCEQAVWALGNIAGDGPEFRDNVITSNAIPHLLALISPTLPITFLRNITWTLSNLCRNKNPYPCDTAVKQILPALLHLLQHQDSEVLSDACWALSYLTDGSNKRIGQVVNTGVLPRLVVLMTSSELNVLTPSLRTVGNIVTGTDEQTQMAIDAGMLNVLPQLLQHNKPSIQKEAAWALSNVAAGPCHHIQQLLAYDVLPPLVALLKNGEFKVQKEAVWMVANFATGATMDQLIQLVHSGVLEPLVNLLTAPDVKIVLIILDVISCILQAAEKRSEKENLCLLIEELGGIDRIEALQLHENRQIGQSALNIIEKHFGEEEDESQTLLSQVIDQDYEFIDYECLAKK

B1: GST-SV40TNLS-GFP (other)
chain: PKKKRKV
notes: nuclear localization signal of the SV40 large T antigen (SV40TNLS), between GST and GFP; source: E. coli BL21 (DE3) plysS, purified (glutathione Sepharose); not shown: GST, N-terminal, kept; GFP, C-terminal, kept
binding result: binds
